The values below come from the supplement of paper PMC11908140.

First the molecules themselves.
B1: library; numbered along this chain (parent)
chain: MRKPRAAVGSGHRKQAASQEGRQKHAKNNSQAKPSACDGLARQPEEVVLQASVSSYHLFRDVAEVTAFRGSLLSWYDQEKRDLPWRRRAEDEMDLDRRAYAVWVSEVMLQQTQVATVINYYTGWMQKWPTLQDLASASLEEVNQLWAGLGYYSRGRRLQEGARKVVEELGGHMPRTAETLQQLLPGVGRYTAGAIASIAFGQATGVVDGNVARVLCRVRAIGADPSSTLVSQQLWGLAQQLVDPARPGDFNQAAMELGATVCTPQRPLCSQCPVESLCRARQRVEQEQLLASGSLSGSPDVEECAPNTGQCHLCLPPSEPWDQTLGVVNFPRKASRKPPREESSATCVLEQPGALGAQILLVQRPNSGLLAGLWEFPSVTWEPSEQLQRKALLQELQRWAGPLPATHLRHLGEVVHTFSHIKLTYQVYGLALEGQTPVTTVPPGARWLTQEEFHTAAVSTAMKKVFRVYQGQQPGTCMGSKRSQVSSPCSRKKPRMGQQVLDNFFRSHISTDAHSLNSAAQ

The data set covers variants of B1. Kind of data set: 8OG:A repair function score (normalized; synonymous = 0, nonsense = -1) (normalized log-likelihood score); higher = more repair activity (WT-like). Conditions: with 8OG:A DNA repair reporter (GFP) in HEK-293 MUTYH KO cells. How it is done:
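Saturation mutagenesis (NNN codon scan) of the MUTYH cDNA (521-aa nuclear isoform NM_001048174.1 / NP_001041639), stably expressed under doxycycline induction in HEK-293 MUTYH knockout cells. Cells were co-transfected with an 8OG:A-bearing GFP repair reporter plus mCherry and sorted 72 h later into GFP+ and GFP− bins, three replicates per tile. The Rosace log2 enrichment (GFP+ vs GFP−) was converted per tile to a normalized function score with synonymous variants centered at 0 and nonsense variants (codons 1-471) at -1; low-abundance variants were removed.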
For MRKPRAAVGSGHRKQAASQEGRQKHAKNNSQAKPSACDGLARQPEEVVLQASVSSYHLFRDVAEVTAFRGSLLSWYDQEKRDLPWRRRAEDEMDLDTRAYAVWVSEVMLQQTQVATVINYYTGWMQKWPTLQDLASASLEEVNQLWAGLGYYSRGRRLQEGARKVVEELGGHMPRTAETLQQLLPGVGRYTAGAIASIAFGQATGVVDGNVARVLCRVRAIGADPSSTLVSQQLWGLAQQLVDPARPGDFNQAAMELGATVCTPQRPLCSQCPVESLCRARQRVEQEQLLASGSLSGSPDVEECAPNTGQCHLCLPPSEPWDQTLGVVNFPRKASRKPPREESSATCVLEQPGALGAQILLVQRPNSGLLAGLWEFPSVTWEPSEQLQRKALLQELQRWAGPLPATHLRHLGEVVHTFSHIKLTYQVYGLALEGQTPVTTVPPGARWLTQEEFHTAAVSTAMKKVFRVYQGQQPGTCMGSKRSQVSSPCSRKKPRMGQQVLDNFFRSHISTDAHSLNSAAQ [R97T], the “8OG:A repair function score” value is -0.00706.

MRKPRAAVGSGHRKQAASQEGRQKHAKNNSQAKPSACDGLARQPEEVVLQASVSSYHLFRDVAEVTAFRGSLLSWYDQEKRDLPWRRRAEDEMDLDVRAYAVWVSEVMLQQTQVATVINYYTGWMQKWPTLQDLASASLEEVNQLWAGLGYYSRGRRLQEGARKVVEELGGHMPRTAETLQQLLPGVGRYTAGAIASIAFGQATGVVDGNVARVLCRVRAIGADPSSTLVSQQLWGLAQQLVDPARPGDFNQAAMELGATVCTPQRPLCSQCPVESLCRARQRVEQEQLLASGSLSGSPDVEECAPNTGQCHLCLPPSEPWDQTLGVVNFPRKASRKPPREESSATCVLEQPGALGAQILLVQRPNSGLLAGLWEFPSVTWEPSEQLQRKALLQELQRWAGPLPATHLRHLGEVVHTFSHIKLTYQVYGLALEGQTPVTTVPPGARWLTQEEFHTAAVSTAMKKVFRVYQGQQPGTCMGSKRSQVSSPCSRKKPRMGQQVLDNFFRSHISTDAHSLNSAAQ [R97V]: the “8OG:A repair function score” value was 0.00683.

For MRKPRAAVGSGHRKQAASQEGRQKHAKNNSQAKPSACDGLARQPEEVVLQASVSSYHLFRDVAEVTAFRGSLLSWYDQEKRDLPWRRRAEDEMDLDQRAYAVWVSEVMLQQTQVATVINYYTGWMQKWPTLQDLASASLEEVNQLWAGLGYYSRGRRLQEGARKVVEELGGHMPRTAETLQQLLPGVGRYTAGAIASIAFGQATGVVDGNVARVLCRVRAIGADPSSTLVSQQLWGLAQQLVDPARPGDFNQAAMELGATVCTPQRPLCSQCPVESLCRARQRVEQEQLLASGSLSGSPDVEECAPNTGQCHLCLPPSEPWDQTLGVVNFPRKASRKPPREESSATCVLEQPGALGAQILLVQRPNSGLLAGLWEFPSVTWEPSEQLQRKALLQELQRWAGPLPATHLRHLGEVVHTFSHIKLTYQVYGLALEGQTPVTTVPPGARWLTQEEFHTAAVSTAMKKVFRVYQGQQPGTCMGSKRSQVSSPCSRKKPRMGQQVLDNFFRSHISTDAHSLNSAAQ [R97Q], the “8OG:A repair function score” value came to 0.00692.

As for MRKPRAAVGSGHRKQAASQEGRQKHAKNNSQAKPSACDGLARQPEEVVLQASVSSYHLFRDVAEVTAFRGSLLSWYDQEKRDLPWRRRAEDEMDLDYRAYAVWVSEVMLQQTQVATVINYYTGWMQKWPTLQDLASASLEEVNQLWAGLGYYSRGRRLQEGARKVVEELGGHMPRTAETLQQLLPGVGRYTAGAIASIAFGQATGVVDGNVARVLCRVRAIGADPSSTLVSQQLWGLAQQLVDPARPGDFNQAAMELGATVCTPQRPLCSQCPVESLCRARQRVEQEQLLASGSLSGSPDVEECAPNTGQCHLCLPPSEPWDQTLGVVNFPRKASRKPPREESSATCVLEQPGALGAQILLVQRPNSGLLAGLWEFPSVTWEPSEQLQRKALLQELQRWAGPLPATHLRHLGEVVHTFSHIKLTYQVYGLALEGQTPVTTVPPGARWLTQEEFHTAAVSTAMKKVFRVYQGQQPGTCMGSKRSQVSSPCSRKKPRMGQQVLDNFFRSHISTDAHSLNSAAQ [R97Y], the “8OG:A repair function score” value is -0.0378.

Turning to MRKPRAAVGSGHRKQAASQEGRQKHAKNNSQAKPSACDGLARQPEEVVLQASVSSYHLFRDVAEVTAFRGSLLSWYDQEKRDLPWRRRAEDEMDLDWRAYAVWVSEVMLQQTQVATVINYYTGWMQKWPTLQDLASASLEEVNQLWAGLGYYSRGRRLQEGARKVVEELGGHMPRTAETLQQLLPGVGRYTAGAIASIAFGQATGVVDGNVARVLCRVRAIGADPSSTLVSQQLWGLAQQLVDPARPGDFNQAAMELGATVCTPQRPLCSQCPVESLCRARQRVEQEQLLASGSLSGSPDVEECAPNTGQCHLCLPPSEPWDQTLGVVNFPRKASRKPPREESSATCVLEQPGALGAQILLVQRPNSGLLAGLWEFPSVTWEPSEQLQRKALLQELQRWAGPLPATHLRHLGEVVHTFSHIKLTYQVYGLALEGQTPVTTVPPGARWLTQEEFHTAAVSTAMKKVFRVYQGQQPGTCMGSKRSQVSSPCSRKKPRMGQQVLDNFFRSHISTDAHSLNSAAQ [R97W], the “8OG:A repair function score” value was -0.346.

With MRKPRAAVGSGHRKQAASQEGRQKHAKNNSQAKPSACDGLARQPEEVVLQASVSSYHLFRDVAEVTAFRGSLLSWYDQEKRDLPWRRRAEDEMDLDSRAYAVWVSEVMLQQTQVATVINYYTGWMQKWPTLQDLASASLEEVNQLWAGLGYYSRGRRLQEGARKVVEELGGHMPRTAETLQQLLPGVGRYTAGAIASIAFGQATGVVDGNVARVLCRVRAIGADPSSTLVSQQLWGLAQQLVDPARPGDFNQAAMELGATVCTPQRPLCSQCPVESLCRARQRVEQEQLLASGSLSGSPDVEECAPNTGQCHLCLPPSEPWDQTLGVVNFPRKASRKPPREESSATCVLEQPGALGAQILLVQRPNSGLLAGLWEFPSVTWEPSEQLQRKALLQELQRWAGPLPATHLRHLGEVVHTFSHIKLTYQVYGLALEGQTPVTTVPPGARWLTQEEFHTAAVSTAMKKVFRVYQGQQPGTCMGSKRSQVSSPCSRKKPRMGQQVLDNFFRSHISTDAHSLNSAAQ [R97S], the “8OG:A repair function score” value was -0.0417.
